Test results: publication PMC6092398, “Revealing circadian mechanisms of integration and resilience by visualizing clock proteins working in real time” (Nature Communications, 2018)
Changes are numbered by the printed parent chain. Blank lines part the entries; values can stand above or below the molecule they belong to.

How the values were obtained:
KaiA [1] = molecular target: KaiA (UniProt Q79PF6); test: HS-AFM single-molecule dwell time
KaiA [2] = molecular target: KaiA (UniProt Q79PF6); test: HS-AFM single-molecule dwell time; remark: listed apart in the source
[3] = molecular target: the molecule itself; test: high-speed atomic force microscopy (HS-AFM); KaiC^WT alone immobilised on bare mica (N-terminal side seen), images compared with an AFM image simulated from the crystal structure
KaiC-DA (mimic of pS/T) = molecular target: T1, KaiC-DA (mimic of pS/T) (S. elongatus, UniProt Q79PF4 1-519, KaiC-DA (S431 to D) | KaiC-DA (T432 to A)); test: high-speed atomic force microscopy (HS-AFM); KaiC phospho-mimics on AP-mica (CII end up), 1 μM KaiA in solution, no ATP; dwell time of the KaiA-bound state from images at 10 fps, fitted to a first order model; 20 mM Tris-HCl pH 8.0, 5 mM MgCl2, 25-28 °C; settings: both partners purified
T1 construct: KaiC of Synechococcus elongatus with the two phosphorylation sites S431 and T432 changed to D and A; the two substitutions are read from these; source: E. coli BL21 or DH5α, pGEX-based construct, purified (glutathione-agarose, HRV3C cleavage on the column, Q Sepharose); not shown: GST, N-terminal, cleaved
T1 sequence: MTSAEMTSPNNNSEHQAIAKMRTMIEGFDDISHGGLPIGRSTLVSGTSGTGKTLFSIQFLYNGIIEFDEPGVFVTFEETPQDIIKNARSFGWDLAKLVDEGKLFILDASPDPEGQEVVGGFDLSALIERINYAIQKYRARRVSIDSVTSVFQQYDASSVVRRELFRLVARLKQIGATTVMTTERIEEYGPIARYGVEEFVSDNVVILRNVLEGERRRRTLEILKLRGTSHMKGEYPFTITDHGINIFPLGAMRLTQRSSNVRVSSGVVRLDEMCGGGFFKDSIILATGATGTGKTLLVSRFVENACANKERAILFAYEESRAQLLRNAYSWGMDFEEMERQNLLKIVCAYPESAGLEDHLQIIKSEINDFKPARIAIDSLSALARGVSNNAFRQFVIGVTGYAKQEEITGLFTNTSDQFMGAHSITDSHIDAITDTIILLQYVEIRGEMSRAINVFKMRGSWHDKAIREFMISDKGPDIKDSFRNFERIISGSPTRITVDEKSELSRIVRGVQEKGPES

KaiC-AE (mimic of S/pT) [4] = molecular target: T2, KaiC-AE (mimic of S/pT) (S. elongatus, UniProt Q79PF4 1-519, KaiC-AE (S431 to A) | KaiC-AE (T432 to E)); test: as above; settings: both partners purified
T2 construct: KaiC of Synechococcus elongatus with the two phosphorylation sites S431 and T432 changed to A and E; the two substitutions are read from these; source: E. coli BL21 or DH5α, pGEX-based construct, purified (glutathione-agarose, HRV3C cleavage on the column, Q Sepharose); not shown: GST, N-terminal, cleaved
T2 sequence: T1 sequence with D431A, A432E

KaiC-DE (mimic of pS/pT) [5] = molecular target: T3, KaiC-DE (mimic of pS/pT) (S. elongatus, UniProt Q79PF4 1-519, KaiC-DE (S431 to D) | KaiC-DE (T432 to E)); test: as above; settings: both partners purified
T3 construct: KaiC of Synechococcus elongatus with the two phosphorylation sites S431 and T432 changed to D and E; the two substitutions are read from these; source: E. coli BL21 or DH5α, pGEX-based construct, purified (glutathione-agarose, HRV3C cleavage on the column, Q Sepharose); not shown: GST, N-terminal, cleaved
T3 sequence: T1 sequence with A432E

KaiC-AA (mimic of S/T) = molecular target: T4, KaiC-AA (mimic of S/T) (S. elongatus, UniProt Q79PF4 1-519, KaiC-AA (S431 to A) | KaiC-AA (T432 to A)); test: high-speed atomic force microscopy (HS-AFM); as Fig. 3 but with 1 mM ATP in the observation buffer (Supplementary Fig. 4); KaiC phospho-mimics on AP-mica, KaiA in solution; settings: both partners purified
T4 construct: KaiC of Synechococcus elongatus with the two phosphorylation sites S431 and T432 changed to A and A; the two substitutions are read from these; source: E. coli BL21 or DH5α, pGEX-based construct, purified (glutathione-agarose, HRV3C cleavage on the column, Q Sepharose); not shown: GST, N-terminal, cleaved
T4 sequence: T1 sequence with D431A

KaiC-AE (mimic of S/pT) [6] = molecular target: T2, KaiC-AE (mimic of S/pT); test: as above; settings: both partners purified
KaiC-DE (mimic of pS/pT) [7] = molecular target: T3, KaiC-DE (mimic of pS/pT); test: as above; settings: both partners purified
[8] = reference: KaiC-AA (S431A/T432A), sites T432
[9] = reference: KaiC-AA (S431A/T432A), sites S431
[10] = reference: KaiC-AA (S431A/T432A), sites S431,T432
[11] = reference: KaiC-AE (S431A/T432E), sites S431

Molecule: KaiC (from UniProt Q79PF4) KaiC-DA (S431D/T432A)
other: bound-state lifetime τbound (KaiA [1]; [9]): 0.43 s
other: bound-state lifetime τbound (KaiA [2]; [9]): 0.43 s

Molecule: KaiC (from UniProt Q79PF4) KaiC-DE (S431D/T432E)
other: bound-state lifetime τbound (KaiA [1]; [10]): 0.26 s
other: bound-state lifetime τbound (KaiA [1]; [11]): weaker; reference 1.00 ± 0.15
other: bound-state lifetime τbound (KaiA [2]; [10]): 0.31 s
other: bound-state lifetime τbound (KaiA [2]; [11]): weaker; reference 0.95 ± 0.04
other: bound-state lifetime τbound (KaiA [2]; reference: KaiC-DA (S431D/T432A), sites T432): weaker; reference 0.43 ± 0.01

Molecule: KaiC (from UniProt Q79PF4) KaiCWT from peak phosphorylation phase (24 h)
other: bound-state lifetime τbound (KaiA [1]; reference: KaiCWT from trough phosphorylation phase (15 h), sites S431,T432): weaker; reference 0.77 ± 0.05

B1: native wild-type KaiC hexamer (KaiC^WT) (natural protein, S. elongatus)
chain: T1 sequence with D431S, A432T
notes: circadian clock protein KaiC of Synechococcus elongatus, native (unmutated); also called native KaiC; C6; source: E. coli BL21 or DH5α, pGEX-based construct, purified (glutathione-agarose, HRV3C cleavage on the column, Q Sepharose; 5 mM MgCl2 and 1 mM ATP throughout); not shown: GST, N-terminal, cleaved
stoichiometry N [3]: 6

B2: KaiA (natural protein, S. elongatus, UniProt Q79PF6 1-284, looked up)
chain: MLSQIAICIWVESTAILQDCQRALSADRYQLQVCESGEMLLEYAQTHRDQIDCLILVAANPSFRAVVQQLCFEGVVVPAIVVGDRDSEDPDEPAKEQLYHSAELHLGIHQLEQLPYQVDAALAEFLRLAPVETMADHIMLMGANHDPELSSQQRDLAQRLQERLGYLGVYYKRDPDRFLRNLPAYESQKLHQAMQTSYREIVLSYFSPNSNLNQSIDNFVNMAFFADVPVTKVVEIHMELMDEFAKKLRVEGRSEDILLDYRLTLIDVIAHLCEMYRRSIPRET
notes: circadian clock protein KaiA of Synechococcus elongatus, native (unmutated); also called native KaiA; KaiA dimer; source: E. coli BL21 or DH5α, pGEX-based construct, purified (glutathione-agarose, HRV3C cleavage on the column, Q Sepharose); not shown: GST, N-terminal, cleaved
τ_(bound) (dwell time of the bound state) (KaiC-DA (mimic of pS/T)): 0.43 s
τ_(bound) (dwell time of the bound state) (KaiC-AE (mimic of S/pT) [4]): 1 s
τ_(bound) (dwell time of the bound state) (KaiC-DE (mimic of pS/pT) [5]): 0.26 s
binding result (KaiC-AA (mimic of S/T)): binds
τ_(bound) (dwell time of the bound state) (KaiC-AE (mimic of S/pT) [6]): 0.95 s
τ_(bound) (dwell time of the bound state) (KaiC-DE (mimic of pS/pT) [7]): 0.31 s

The next lines start with the values.

other: bound-state lifetime τbound (KaiA [1]; [8]): 1 s
other: bound-state lifetime τbound (KaiA [2]; [8]): 0.95 s
Molecule: KaiC (from UniProt Q79PF4) KaiC-AE (S431A/T432E)

other: bound-state lifetime τbound (KaiA [1]; reference: hypo-phosphorylated KaiCWT (~27% phosphorylated), sites S431,T432): weaker; reference 1.12 ± 0.03
Molecule: KaiC (from UniProt Q79PF4) hyperphosphorylated KaiCWT (~81% phosphorylated)
